# Experimental data: article PMC2920321, “Characterization of ftsZ Mutations that Render Bacillus subtilis Resistant to MinC” (PLoS ONE, 2010)
# B1: wild type FtsZ (Bacillus subtilis) [B. subtilis] / itself (parent)
# chain: MLEFETNIDGLASIKVIGVGGGGNNAVNRMIENEVQGVEYIAVNTDAQALNLSKAEVKMQIGAKLTRGLGAGANPEVGKKAAEESKEQIEEALKGADMVFVTAGMGGGTGTGAAPVIAQIAKDLGALTVGVVTRPFTFEGRKRQLQAAGGISAMKEAVDTLIVIPNDRILEIVDKNTPMLEAFREADNVLRQGVQGISDLIATPGLINLDFADVKTIMSNKGSALMGIGIATGENRAAEAAKKAISSPLLEAAIDGAQGVLMNITGGTNLSLYEVQEAADIVASASDQDVNMIFGSVINENLKDEIVVTVIATGFIEQEKDVTKPQRPSLNQSIKTHNQSVPKREPKREEPQQQNTVSRHTSQPADDTLDIPTFLRNRNKRG
# Variants of: B1
# Test: sedimentation assay (ultracentrifugation)
# Settings: with itself, 10 µM FtsZ, 50 mM Hepes/NaOH, 50 mM KCl, 10 mM MgCl2, pH 7.5, 30°C, 5 min, read off a plot
response (% FtsZ in pellet) (1 mM GDP (control)),response (% FtsZ in pellet) (1 mM GTP),Variant
28,25,chain 1 A285T
16,51,chain 1 S219L
18,29,chain 1 L302P Q353R
